Source: EP4435105

T1: human ASGR-1 (on CHO-S cells) (human, UniProt P07306)
T1 chain: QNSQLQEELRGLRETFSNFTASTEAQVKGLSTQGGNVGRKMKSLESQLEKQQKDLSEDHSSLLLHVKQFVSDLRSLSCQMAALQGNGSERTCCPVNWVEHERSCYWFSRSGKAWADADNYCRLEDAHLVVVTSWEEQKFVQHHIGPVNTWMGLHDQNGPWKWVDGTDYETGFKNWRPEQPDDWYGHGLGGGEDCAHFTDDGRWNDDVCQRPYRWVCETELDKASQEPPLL

B1: 4A2 (antibody, V domains shown)
VH: QVQLVQSGTEVKKPGASVKVSCKASGYTFTNYDINWVRQATGQGLEWMGWMHPNSGNTGYAQKFQGRVTLTRDTSISTAYMELSSLRSEDTAVYYCASSSGWYYFDYWGQGTLVTVSS
VL: DIVMTQSPDSLAVSLGERATINCKSSQSILHSSNNNNYLAWFQQKPGQPPKLLLYWASTRESGVPDRFSGSGSGTDFTLTISSLQPEDVAVYYCQQYYNTPVTFGPGTKVGIK
B2: 176H4 (antibody, V domains shown)
VH: QVQLVESGGGVVQPGRSLRLSCAASGFTFSSYGMHWVRQAPGKGLEWVAIIWYDGSYKYYADSVKGRFTISRDNSKNTLYLQMSSLRAEDTAVYYCARDAHDFWSGYFAYWGQGALVTVSS
VL: DIVMTQTPLSLSVTPGQPASISCKSSQSLLHGDGKTYLYWYLQKPGQPPQLLIYEVSNRFSGVPDRFSGSGSGTDFTLKISRVEAEDVGIYYCMQSIQIPWTFGQGTRVEIK
B3: 5E5 (antibody, V domains shown)
VH: QVQLVESGGGVVQPGRSLRLSCAASGFTFSNYVMHWVRQAPGKGLEWVAVIWYDGSNKYYADSVKGRFTISRDNSKNTLYLQMNSLRAEDTAVYYCTREVYSSGWYDYGMDVWGQGTTVTVSS
VL: DIQMTQSPSSLSASVGDRVTITCRASQGIRNDLGWYQQKPGKAPKRLIYAASSLQSGVPSRFSGSGSGTEFTLTISSLQPEDFATYYCLQHYSYPRTFGQGTKVEVK
B4: 194C10 (antibody, V domains shown)
VH: QVQLQQWGAGLLKPSETLSLTCAVSGGSFRYYYWSWIRQPPGKGLEWFGEINHSGSTNYNPSLKSRVTISIDTSKNQFSLKLRSVTAADTAVYYCARDYGAFDIWGQGTMVTVSS
VL: EIVLTQSPGTLSLSPGERATLSCRASPSVNSGYLAWYQQKPGQTPRLLIFGASSRATGIPDRFSASGSGADFTLTISRLEPEDFAVYFCQQYESSPWTFGQGTKVEIK
B5: 22G5 (antibody, V domains shown)
VH: EVQLLESGGGLVQPGGSLRLSCAASGFTFSSYAMNWVRQAPGMGLEWVSVISRSGGYTYYADSVKGRFTISRDNSKNTLYLQMNSLRAEDTAVYYCASRLAVAGSEAFDIWGQGTLVTVSS
VL: DIQMTQSPSSLSASVGDRVTITCRASQNISSYLNWYQQKQGKAPKLLIYAASSLQNGVPSRFSGRGSGTDFTLTISSLQPEDFATYYCQQSYRTPLFTFGPGTKVDFK

Target: T1, human ASGR-1 (on CHO-S cells)
Assay: competition, FACS, GalNAc-PAA

IC50	Binder
54 nM	B1
73 nM	B2
> 200 nM	B3
87 nM	B4
11 nM	B5

Target: T1, human ASGR-1 (on CHO-S cells)
Assay: competition, FACS, asialofetuin

IC50	Binder
11 nM	B1
59 nM	B2
16 nM	B3
30 nM	B4
3.4 nM	B5
